Laboratory results from patent US20240336649A1 (MIT, published 2024).

B1: Omomyc analog 12 (synthetic Omomyc monomer with a C-terminal cysteine) (other)
chain: MATEENVKRRTHNVLERQRRNELKRSFFALRDQIPELENNEKAPKVVILKKATAYILSVQAETQKLISEIDLLRKQNEQLKHKLEQLRNSC
notes: Artificial mini-protein; the structure of 12 is in a drawing; also called Omomyc 12; Omomyc (12)
B2: Myc analog 10 (synthetic Myc monomer with a C-terminal cysteine) (other)
chain: NVKRRTHNVLERQRRNELKRSFFALRDQIPELENNEKAPKVVILKKATAYILSVQAEEQKLISEEDLLRKRREQLKHKLEQLGGC
notes: also called Myc 10

How the values were obtained:
[1] = target: the molecule itself; assay: non-covalent homodimer inferred from EMSA with E-box DNA (Omomyc+Omomyc)
Source text: (§1) The three synthetic analogs 10, 11, and 12 can form non-covalent dimers and bind to the target E-box DNA (5′-[…]-3′). […] However, it is not possible to determine which dimeric species form in a solution containing two different monomers. For instance, upon mixing Max (11) and Omomyc (12), three different dimers (Max/Max, Omomyc/Omomyc and Max/Omomyc) can form and potentially bind to DNA (FIG. 18). To assess the activity of these protein complexes in a reliable manner, access to well-defined covalent protein dimers is critical.

[2] = target: the molecule itself; assay: EMSA with a 22 bp double-stranded E-box DNA probe. This is an indirect sign: the gel shows DNA binding, and the filing reads the missing shift as missing homodimerisation.
Source text: as §1

Row | Protein | binding result [1] | binding result [2]
1 | B1 | binds | 
2 | B2 |  | no binding
